Measured values as given in patent publication US20090280488A1 (NATIONAL UNIVERSITY CORPORATION TOKYO MEDICAL AND DENTAL …, published 2009).

T1: normal ataxin-1 (AT1-30Q) (human, UniProt P54253 1-815)
T1 construct: mature; Polyglutamine tract of 30 glutamines; also called normal AT1; normal polyglutamine protein
T1 sequence (looked up): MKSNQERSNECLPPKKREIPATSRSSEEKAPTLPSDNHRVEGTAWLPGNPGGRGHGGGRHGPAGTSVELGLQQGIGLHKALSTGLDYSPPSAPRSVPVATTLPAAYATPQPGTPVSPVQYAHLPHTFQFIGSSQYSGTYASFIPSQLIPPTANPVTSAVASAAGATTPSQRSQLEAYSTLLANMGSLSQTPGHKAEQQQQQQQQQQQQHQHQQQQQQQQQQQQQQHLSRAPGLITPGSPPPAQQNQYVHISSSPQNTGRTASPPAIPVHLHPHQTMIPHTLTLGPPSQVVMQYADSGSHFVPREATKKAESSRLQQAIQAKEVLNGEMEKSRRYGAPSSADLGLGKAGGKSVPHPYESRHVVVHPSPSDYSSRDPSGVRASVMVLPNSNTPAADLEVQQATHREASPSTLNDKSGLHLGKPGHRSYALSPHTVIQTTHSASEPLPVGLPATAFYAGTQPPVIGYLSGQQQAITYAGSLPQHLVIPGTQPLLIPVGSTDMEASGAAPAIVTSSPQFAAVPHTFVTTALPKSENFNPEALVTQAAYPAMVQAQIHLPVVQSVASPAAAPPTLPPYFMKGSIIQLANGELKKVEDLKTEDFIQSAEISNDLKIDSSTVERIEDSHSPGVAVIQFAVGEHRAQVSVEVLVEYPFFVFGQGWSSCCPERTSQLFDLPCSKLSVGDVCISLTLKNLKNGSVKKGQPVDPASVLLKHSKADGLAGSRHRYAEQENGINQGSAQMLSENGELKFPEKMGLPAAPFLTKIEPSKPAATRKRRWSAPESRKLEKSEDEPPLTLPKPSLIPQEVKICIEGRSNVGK

B1: HMGB1-EGFP protein (rat HMGB1 expressed from pEGFP-N1-HMGB1) (other)
chain: MGKGDPKKPRGKMSSYAFFVQTCREEHKKKHPDASVNFSEFSKKCSERWKTMSAKEKGKFEDMAKADKARYEREMKTYIPPKGETKKKFKDPNAPKRPPSAFFLFCSEYRPKIKGEHPGLSIGDVAKKLGEMWNNTAADDKQPYEKKAAKLKEKYEKDIAAYRAKGKPDAAKKGVVKAEKSKKKKEEEDDEEDEEDEEEEEEEEDEDEEEDDDDE
notes: Expressed in HeLa cells by transfection; precipitated from the lysate with anti-HMGB or anti-EGFP antibody; The order HMGB1 then EGFP follows from the vector pEGFP-N1; HeLa cells also carry endogenous human HMGB1; also called HMGB-EGFP protein; not shown: EGFP and linker encoded by pEGFP-N1 (Clontech)
B2: HMGB2-EGFP protein (rat HMGB2 expressed from pEGFP-N1-HMGB2) (other)
chain: MGKGDPNKPRGKMSSYAFFVQTCREEHKKKHPDSSVNFAEFSKKCSERWKTMSAKEKSKFEDLAKSDKARYDREMKNYVPPKGDKKGKKKDPNAPKRPPSAFFLFCSEHRPKIKSEHPGLSIGDTAKKLGEMWSEQSAKDKQPYEQKAAKLKEKYEKDIAAYRAKGKSEVGKKGPGRPTGSKKKNEPEDEEEEEEEEDDEDEEEEDEDEE
notes: Expressed in HeLa cells by transfection; precipitated from the lysate with anti-HMGB or anti-EGFP antibody; The order HMGB2 then EGFP follows from the vector pEGFP-N1; also called HMGB-EGFP protein; not shown: EGFP and linker encoded by pEGFP-N1 (Clontech)
B3: normal huntingtin (Htt20Q) (other, human, UniProt P42858 1-88, looked up)
chain: MATLEKLMKAFESLKSFQQQQQQQQQQQQQQQQQQQQQPPPPPPPPPPPQLPQPPPQAQPLLPQPQPPPPPPPPPPGPAVAEEPLHRP
notes: domain: exon I; Only exon I of huntingtin, with 20 glutamines; also called normal Htt; normal polyglutamine protein

Tests used:
Assay in all cases: co-immunoprecipitation from HeLa cell lysate with anti-HMGB or anti-EGFP antibody, blot with CAG53b
[1] = target: T1, normal ataxin-1 (AT1-30Q)
Method: (§1) HeLa cells (1×10⁶) in a 10 cm dish were transfected with pEGFP-N1, pEGFP-N1-HMGB1 or pEGFP-N1-HMGB2 using SuperFect (invitrogen). The cells were also infected with adenoviral vectors (AxCAwt, AxCA-HMGB1, AxCA-HMGB2, AxCA-htt20Q, AxCA-htt111Q, AxCA-AT1-30Q or AxCA-AT1-82Q) in the same manner as described above. Immunoprecipitation was performed according to a known technique (Okazawa, H. et al., Neuron. 34, 701-713. (2002)). Specifically, collected HeLa cells were incubated at 4° C. in TNE buffer (10 mM Tris-HCl (pH7.8), […], 0.15M NaCl, 1 mM EDTA) for 1 hour and were then centrifuged at 17,400×g for 20 min. The supernatant was preincubated with protein G-Sepharose (Amersham Biosciences) at 4° C. for 2 hours and then centrifuged. The supernatant was incubated with anti-HMGB1 antibody (1:600, BD Biosciences), anti-HMGB2 antibody (1:600, BD Biosciences) or anti-GFP antibody (1:600, Clontech) overnight and was subsequently incubated with protein G-Sepharose for 2 hours. The protein G beads were collected by centrifugation (2,000×g) for 5 min and washed 5 times with TNE buffer. The bound proteins were eluted with a sample buffer, separated by SDS-PAGE, and blotted with CAG53b antibody (Scherzinger, E. et al., Cell. 90, 549-558. (1997)).
(§2) A plasmid pEGFP-N-1-HMGB1/2 was transfected into Hela cells and the cells were infected with an adenoviral vector designed to express normal or mutant polyglutamine protein. The cells expressed normal or mutant polyglutamine protein. The expression levels of polyglutamine protein and HMGB-EGFP protein were checked by Western blot using CAG53b antibody and anti-GFP antibody (left panel in FIG. 5). Immunoprecipitation was performed using anti-HMGB or anti-EGFP antibody. […] The pull-down assay using HeLa cells expressing polyglutamine protein indicated interaction between mutant polyglutamine protein and HMGB protein (FIG. 6).

[2] = target: B1
Method: as §1, §2

[3] = target: B2
Method: as §1, §2

binding result [2] | binding result [3] | Binder | binding result [1]
– | – | B1 | no binding
– | – | B2 | no binding
no binding | no binding | B3 | –
